These results are taken from paper PMC10461225, “Creation of a Peptide Antagonist of the GFRAL–RET Receptor Complex for the Treatment of GDF15-Induced Malaise” (Journal of Medicinal Chemistry, 2023).

Read-outs that look alike come from different tables or passages of the source.

Series [1] concerns Sprague–Dawley rats. To be noted: rat, in vivo, ip, 6 mg/kg.
Protocol: In this set of experiments, rats were treated with the highly emetogenic chemotherapeutic agent, cisplatin. Using this gold-standard preclinical model of CINV, we first determined the effects of a single systemic dose of GRASP administered shortly before cisplatin.
Adult male Sprague–Dawley rats (Charles River) weighing ∼250–270 g on arrival (N = 158) were housed under a 12 h:12 h light/dark cycle in a temperature- and humidity-controlled vivarium (23 ± 1 °C). Animals were fed ad libitum with a standard chow diet (Purina LabDiet 5001) with ad libitum access to tap water and kaolin pellets (Research Diets, K50001) for at least 5 days before the start of the experiment. All animals were naïve to experimental drugs and test treatments before the beginning of the experiment. Rats were habituated in single-hanging wire cages and received saline IP injections every day for 1 week before the onset of the experiment. […]
Using a similar paradigm, the impact of GRASP on cisplatin-induced nausea and anorexia was assessed. […] Food intake and kaolin consumption were measured at 3, 6, and 24 h postinjection.
Food intake and kaolin consumption were analyzed using repeated measures 2 × 3 ANOVAs, 2 × 2 ANOVAs, or one-way ANOVAs followed by Tukey’s post hoc tests. All data were expressed as means ± SEM. […] All data were analyzed using Prism 9 GraphPad Software (San Diego, California).
Series [2] addresses T1, recombinant human GFRAL (S19–E351) (Homo sapiens, UniProt Q6UXV0).
T1 construct: contained a truncated Ser19–Glu351 domain was used for all SPR experiments; His; purchased ACRO Biosystems GFA-H52H3; host or cells: HEK293 cells
T1 sequence (Q6UXV0 19-351): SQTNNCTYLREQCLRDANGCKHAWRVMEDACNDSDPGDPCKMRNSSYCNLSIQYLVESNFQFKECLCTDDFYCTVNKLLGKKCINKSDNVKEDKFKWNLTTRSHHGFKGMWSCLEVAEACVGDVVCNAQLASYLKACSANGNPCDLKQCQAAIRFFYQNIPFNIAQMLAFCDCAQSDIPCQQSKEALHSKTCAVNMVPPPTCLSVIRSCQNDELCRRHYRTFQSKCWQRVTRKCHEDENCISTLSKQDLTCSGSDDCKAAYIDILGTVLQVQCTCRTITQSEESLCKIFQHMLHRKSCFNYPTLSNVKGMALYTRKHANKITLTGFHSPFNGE
The series can be described thus: SPR, high-capacity carboxyl sensor with immobilised GFRAL, peptide or GDF15 as analyte. To be noted: HEK293-derived recombinant human GDF15, TraceDrawer kinetic evaluation, read-out: binding affinity (KD) of GDF15 control to GFRAL. Here is the method:
Peptide binding to a segment of recombinant human GFRAL containing the complete known binding domain of GDF15 and the remaining extracellular domain (S19–E351) of the receptor as defined by UniProt (Q6UXV0) was evaluated by SPR (Figure 1). Initial screening aimed to confirm GFRAL immobilization and system functionality by evaluating the dose–response profile to a commercial formulation of HEK293 cell-derived recombinant human GDF15. […] For example, Yang et al.[6] reported a KD of ∼1 nM for the interaction between untagged GDF15 and purified human GFRAL extracellular domain (ECD) and binding of GDF15 to HEK293 transfectants expressing human GFRAL-EDC (Ser19–Glu351) and GDF15 via SPR and flow cytometry, respectively.
The binding of each peptide to the ECD of GFRAL was initially confirmed from the results of carboxyl-sensor SPR (SI, Figure S9) with bound GFRAL–ECD. A broad range of binding affinities (KD values ranging from […]) was observed. […] We hypothesized this may be due to obstruction of the binding site of GFRAL–ECD in its immobilized state. Thus, we opted for a different SPR approach in which we conjugated GRASP to biotin and immobilized the peptide to the sensor surface, this time via biotin–streptavidin affinity. Increasing concentrations of GFRAL–ECD were then evaluated as the mobile phase against the immobilized GRASP. […]

For series [3], the system named is Sprague–Dawley rats. The series can be described thus: GDF15-induced anorexia and pica (kaolin intake) in rats. Type of series: in vivo, rat. The source says:
In initial experiments, we examined whether central administration of GRASP (i.e., directly into the fourth ventricle or fourth ICV) would counteract the effects of centrally delivered GDF15 in rats. Because the AP/NTS is located on the dorsal surface of the hindbrain at the caudal end of the fourth ventricle, this route of administration facilitates targeted and selective drug delivery near the sites of GFRAL expression. To assess the impact of these interventions, we measured pica behavior, i.e., the ingestion of non-nutritive substances such as kaolin,[29] as this represents an accurate and reliable proxy for malaise in rats and has been used to examine the effects of agents known to cause nausea in humans.[29]−[31]
To increase the translational impact of this study and more closely mimic a potential clinical scenario, we conducted a dose–response study in which both GRASP and GDF15 were administered systemically to rats via the intraperitoneal (IP) route.
All systemic treatments were delivered by intraperitoneal (IP) injection.
To evaluate the impact of GRASP on GDF15-induced anorexia and nausea (proxied by kaolin ingestion) in rats (n = 10, 400–450 g), GRASP (300 and 3000 pmol), or vehicle control was administered centrally immediately before intraventricular infusion of GDF15 (30 pmol). […]
All data were expressed as means ± SEM.

Series [4] addresses purified human GFRAL extracellular domain (ECD). To be noted: untagged GDF15, purified human GFRAL ECD, SPR and flow cytometry, ref 6 (Yang et al.), read-out: reported KD of GDF15 for human GFRAL, cited from earlier work. Here is the method:
Peptide binding to a segment of recombinant human GFRAL containing the complete known binding domain of GDF15 and the remaining extracellular domain (S19–E351) of the receptor as defined by UniProt (Q6UXV0) was evaluated by SPR (Figure 1). Initial screening aimed to confirm GFRAL immobilization and system functionality by evaluating the dose–response profile to a commercial formulation of HEK293 cell-derived recombinant human GDF15. […] GRASPCy5 binding was evaluated by flow cytometry and compared with results from untransfected HEK293 cells.

Series [5] concerns the target T2, Recombinant His-tagged human GFRAL (Ser19–Glu351) (human, UniProt Q6UXV0 19-351).
T2 construct: GDNF family receptor alpha-like (GFRAL), human, extracellular domain S19-E351 as defined by UniProt Q6UXV0; also called GFRAL–ECD; GFRAL (S19–E351); source: bought: ACRO Biosystems (GFA-H52H3), expressed in HEK293 cells
T2 sequence (looked up): T1 sequence (Q6UXV0 19-351)
Put plainly: SPR; GFRAL (S19-E351) immobilised by amine coupling (EDC/NHS) on a high-capacity carboxyl sensor (Nicoya OpenSPR); peptides or GDF15 as analyte; HBSS pH 7.4 running buffer without BSA; 20 uL/min. To be noted: both partners purified.

With “cis-diammineplatinum dichloride [cisplatin]”, the “kaolin consumption and anorexia induced by cisplatin” value with Sprague–Dawley rats [1] is “leads to significant kaolin consumption and anorexia”.

B1: Recombinant human growth differentiation factor 15 (GDF15) (ligand, UniProt Q99988 195-308, looked up)
chain: ARARNGDHCPLGPGRCCRLHTVRASLEDLGWADWVLSPREVQVTMCIGACPSQFRAANMHAQIKTSLHRLKPDTVPAPCCVPASYNPMVLIQKTDTGVSLQTYDDLLAKDCHCI
notes: Growth differentiation factor 15, human, HEK293-derived commercial recombinant protein; commercial GDF15 is commonly the mature C-terminal cytokine (a disulfide-linked dimer), so the limits should be checked with the supplier; source: bought: Abcam (ab302451), expressed in HEK293 cells
Consider B1, for which the dissociation constant (Kd) in series [2] was 6 nM; in series [4] (listed as native ligand), 1 nM; in series [4] it was around 1 nM; in series [5] it was 6.02 nM. Also, the “kaolin consumption and anorexia induced by GDF15, central” value in the series on Sprague–Dawley rats [3] (GDF15 30 pmol central administration, vs vehicle) was “induced significant kaolin consumption and anorexia”. In addition, in the series on Sprague–Dawley rats [3] (GDF15 20 μg/kg IP), the “kaolin consumption and anorexia induced by GDF15, systemic” value was “reliably induced kaolin consumption and modest, albeit statistically significant anorexia”.
